{"source": "patent US20240336661A1", "about": "“PEPTIDES DERIVED FROM RUMINOCOCCUS TORQUES” (University of Copenhagen, priority 2021, published 2024)", "type_in_all_cases": "cell-based", "key": {"[1]": {"assay": "Insulin biosynthesis, summarised in Example 6"}, "[2]": {"tested_on": "fat cells", "assay": "Cellular experiments with recombinant RUCILP2 summarised in Example 6 (fat and liver cells)"}, "[3]": {"tested_on": "human visceral white pre-adipocytes", "assay": "Thermogenesis/browning gene expression in human visceral white pre-adipocytes (q-PCR)", "conditions": "human white preadipocytes, treatment from third day of differentiation, harvested after 14 days", "procedure": "FIG. 9. Exposure of recombinant RUCILP2 to human visceral white pre-adipocytes or murine inguinal white adipocytes causes up-regulation of the expression of genes involved in thermogenesis/browning. Upper panel: mRNA expression level of adipocyte differentiation marker genes including Ucp1, Pparγ1, Dio2, and Cox2 and brown adipocyte-selective genes including Cpt1b and Ebf2 on human white preadipocytes (HWP). Human white preadipocytes were cultured until 80% confluent and switched into differentiation media (with 0.3 ml/ml fetal calf serum, 8 ug/ml d-biotin, 0.5 ug/ml insulin, 400 ng/ml dexamethasone). The differentiation process to mature adipocytes was completed after 12-14 days. The treatment of RUCILP2 started from the third day of differentiation. Cells were harvested after 14 days of differentiation and the gene expressions were quantified by q-PCR. […] Statistical significance was determined by unpaired two-tailed Student's t test. *, p<0.05 vs 0 nM RUCILP2.\nFIG. 28. […] Cells were harvested after 14 days of differentiation and the indicated genes were quantified by q-PCR. […] Cells were harvested after 6 days of differentiation and thermogenesis gene were quantified by q-PCR. […] Cells were harvested after 4 days of differentiation and expression of myogenesis genes were quantified by q-PCR. […] Statistical significance was determined by unpaired two-tailed Student's t test, *, p<0.05 […]"}}, "data": [{"molecule": "RUCILP2: 87 amino acid irisin-like polypeptide cleaved from the Ruminococcus torques FNDC5-like protein RUMTOR_00181; recombinant, 6-His-tagged from E. coli (protein, 6-His tag; Ruminococcus torques, 87 amino acid irisin-like polypeptide cleaved from the Ruminococcus torques FNDC5-like protein RUMTOR_00181; recombinant, 6-His-tagged from E. coli) APVDVKVSEITETSAKASWKNAADGKEAAGYNVYVDGVKLNKELLTEASCGLTNLKAETTYFVEVTAVDAAGNESVKSEKVTFKTLK", "values": [{"measurement": "insulin biosynthesis", "setting": "[1]", "value": "stimulates"}, {"measurement": "leptin expression in fat cells", "setting": "[2]", "value": "enhances"}, {"measurement": "expression of genes regulating lipogenesis", "setting": "[2]; adipocytes and liver cells", "value": "inhibits expression"}, {"measurement": "expression of genes involved in thermogenesis/browning (Ucp1, Pparγ1, Dio2, Cox2, Cpt1b, Ebf2)", "setting": "[3]", "value": "up-regulation"}]}]}
